Test results: the RNAGym collection of RNA variant scans (doi:10.7554/elife.90254)

B1: OR4K15 (parent)
chain: GUUAACGGUCAUAGGCCAUGGAAACUAGGAGCACCAUUUCGCUGCCAGUGAAGAAAUGAACAAAGAAAAUCUGGGCCAGGCAGGCAUCAAAAGAAAUAGUCUUGCGCUCAACCAGAAAGUCUGUAAUCAUUUUAAGGGUA

Variants of: B1
Test: self-cleavage, relative activity (ratio to wild type); higher = more cleavage; in vitro, sequencing; the parent is a self-cleaving ribozyme
A18G A62G showed a self-cleavage of 1.54. Variant A18G A62U has a self-cleavage of 2.16. Variant C17G U39A has a self-cleavage of 1.07. Work on C16U G80A yielded a self-cleavage of 0.1. In the case of A18G G80U, the self-cleavage is reported as 0.14. In the case of C16A A60G, the self-cleavage is reported as 0.51. With A18C C113U the self-cleavage was 0.12. C16U A111U gave a self-cleavage of 0.16. With A18G G115U the self-cleavage was 0.14. Work on G14C A118U yielded a self-cleavage of 0.78. In the case of A18U A91G, the self-cleavage is reported as 1.16. A18U A91U gave a self-cleavage of 1.96. In the case of C17A U43A, the self-cleavage is reported as 1.18. With U19A A116C the self-cleavage was 0.09. U19A A116U showed a self-cleavage of 0.43. Work on A18G U57A yielded a self-cleavage of 1. G15A A56G showed a self-cleavage of 1.45. U19A A54U showed a self-cleavage of 1.8. In the case of U19A A54G, the self-cleavage is reported as 1.15. Work on G15A U139C yielded a self-cleavage of 1.3. G15U A68C showed a self-cleavage of 1.71. With C17U A69G the self-cleavage was 0.62. With G15C A24G the self-cleavage was 0.88. For G14U C105U, the self-cleavage was 0.07. With A18C A62C the self-cleavage was 1.25. A18C A62G showed a self-cleavage of 1.36. For A18G G75C, the self-cleavage was 0.16. Work on U19A A117G yielded a self-cleavage of 1.57. In the case of U19A A117U, the self-cleavage is reported as 0.55. In the case of A18G A54G, the self-cleavage is reported as 0.96. With A18G A54U the self-cleavage was 1.25. In the case of A18G C32U, the self-cleavage is reported as 1.17. Variant G15A A36U has a self-cleavage of 1.01. A18G A68U gave a self-cleavage of 1.33. With G15U A78G the self-cleavage was 0.14. Variant U19A A33G has a self-cleavage of 0.62. Work on C17U A22G yielded a self-cleavage of 1.48. U19A G137U gave a self-cleavage of 1.52. A18C G28U showed a self-cleavage of 1.37. In the case of G15A A111G, the self-cleavage is reported as 0.01. With A18G A125G the self-cleavage was 0.94. U19A A98G gave a self-cleavage of 0.5. Work on C16U U43A yielded a self-cleavage of 0.54. With A18G A67U the self-cleavage was 1.79. A18G A67G showed a self-cleavage of 1.03. With C16G A68U the self-cleavage was 0.89. For G15A U131C, the self-cleavage was 0.87. For A18U U37G, the self-cleavage was 1.12. In the case of A18U A55G, the self-cleavage is reported as 1.85. A18U A55U showed a self-cleavage of 1.49. Work on U19A A140G yielded a self-cleavage of 1.75. In the case of C17U A64G, the self-cleavage is reported as 0.65. With U19A C109U the self-cleavage was 0.16. Work on U19A U102C yielded a self-cleavage of 1.65. For C16G U37C, the self-cleavage was 1.55. Work on A18G A51G yielded a self-cleavage of 1.86. A18G A51U gave a self-cleavage of 1.15. C16A showed a self-cleavage of 1.69. Variant C16U has a self-cleavage of 1.25. For C16G, the self-cleavage was 0.85. A18G A89U showed a self-cleavage of 1.48. For U19A U127C, the self-cleavage was 0.92. Work on A18C A117G yielded a self-cleavage of 1.24. In the case of U19A A118G, the self-cleavage is reported as 0.88. In the case of C16A G80U, the self-cleavage is reported as 0.12. In the case of A18G A94G, the self-cleavage is reported as 1. A18U U133A gave a self-cleavage of 1.57. With A18U A94U the self-cleavage was 1.11. Work on A18U A23U yielded a self-cleavage of 1.88. For A18U A23G, the self-cleavage was 1.26. G15A C113U showed a self-cleavage of 0.03. In the case of A18U A24U, the self-cleavage is reported as 1.36. A18U C113A showed a self-cleavage of 0.05. In the case of A18G A60G, the self-cleavage is reported as 0.97. In the case of U19A A126G, the self-cleavage is reported as 1.38. Variant U19A A126C has a self-cleavage of 0.55. With C16A A126G the self-cleavage was 1.2. A18U A98C gave a self-cleavage of 1.13. With G14U A63G the self-cleavage was 1.14. C16A U127C showed a self-cleavage of 0.13. U19A A89U gave a self-cleavage of 0.85. With A18G A24C the self-cleavage was 0.96. For U19A A63G, the self-cleavage was 1.59. With U19A C77U the self-cleavage was 1.25. Variant C17U U87C has a self-cleavage of 0.7. Work on C17U U87A yielded a self-cleavage of 1.37. A18U A92U showed a self-cleavage of 1.25. For C16U A68G, the self-cleavage was 1.42. Work on C17U U38C yielded a self-cleavage of 1.28. In the case of C17U C109A, the self-cleavage is reported as 0.2. Variant A18U U100C has a self-cleavage of 2.18. For G14U A66G, the self-cleavage was 0.9. A18G C46U showed a self-cleavage of 1.34. With A18U A47U the self-cleavage was 0.78. Work on C16U A27G yielded a self-cleavage of 0.94. With C16A A56G the self-cleavage was 0.41. A18G U87A showed a self-cleavage of 1.14. Work on A18G U87C yielded a self-cleavage of 1.27. With A18G A47G the self-cleavage was 1.14. Work on G14U A90G yielded a self-cleavage of 1.34. Variant G14C A18G has a self-cleavage of 1.59. For U19A A69G, the self-cleavage was 1.14. Variant U19A A82U has a self-cleavage of 0.34. For G14U A116U, the self-cleavage was 0.11. Work on A18G U38C yielded a self-cleavage of 0.46. With A18G U38A the self-cleavage was 1.27. Work on G14C A30G yielded a self-cleavage of 1.66. U19A A62G showed a self-cleavage of 1.32. For A18G U132G, the self-cleavage was 1.71. Variant C16G A69G has a self-cleavage of 1.02. A18C A118G gave a self-cleavage of 1.22. In the case of G15A U70A, the self-cleavage is reported as 0.96. Variant G15A U102C has a self-cleavage of 1.98. Work on A18U A90G yielded a self-cleavage of 0.53. Work on C17G A54G yielded a self-cleavage of 0.86. A18G A23G showed a self-cleavage of 1.01. Variant C17A G73A has a self-cleavage of 0.16. U19A A86G showed a self-cleavage of 2.13. For C16U U132C, the self-cleavage was 1.11. C16U A95G showed a self-cleavage of 1.21. A18G G53U gave a self-cleavage of 1.66. A18G C40U gave a self-cleavage of 1.66. With C17U A91G the self-cleavage was 0.42. In the case of U19A, the self-cleavage is reported as 1.16. Variant C16U A129C has a self-cleavage of 1.3. In the case of A18U A67G, the self-cleavage is reported as 1.53. In the case of U19A A91C, the self-cleavage is reported as 1.85. For U19A A91G, the self-cleavage was 1.06. Work on C16G A86G yielded a self-cleavage of 0.51. Work on C16G G83A yielded a self-cleavage of 1.21. Variant G15C A86U has a self-cleavage of 1.92. Variant A18G A82G has a self-cleavage of 0.98. Variant C16U C32G has a self-cleavage of 0.15. A18U A30U showed a self-cleavage of 1.57. With G14U A82U the self-cleavage was 0.13. G14U A94G showed a self-cleavage of 1.84. In the case of A18G G93U, the self-cleavage is reported as 2.69. G14A U130C showed a self-cleavage of 0.45. Variant U19A A23G has a self-cleavage of 1.28. For C16U A52G, the self-cleavage was 0.37. G15C U39C showed a self-cleavage of 1.26. For C16U A82U, the self-cleavage was 0.21. For C16G A135G, the self-cleavage was 0.74. Work on C17U A89G yielded a self-cleavage of 1.23. For A18U A96U, the self-cleavage was 1.88. In the case of A18U A96G, the self-cleavage is reported as 1.62. G15C A68C showed a self-cleavage of 2.44. In the case of G14U A92G, the self-cleavage is reported as 1.2. For A18U U70A, the self-cleavage was 1.35. In the case of C16U U97C, the self-cleavage is reported as 1.23. With A18U U38A the self-cleavage was 1.02. G15U A126U showed a self-cleavage of 0.79. With A18U A116G the self-cleavage was 0.63. A18U A116U gave a self-cleavage of 0.15. For U19A A52G, the self-cleavage was 1.35. With G15A A116G the self-cleavage was 0.52. Work on A18G A134G yielded a self-cleavage of 1.8. With A18U A52U the self-cleavage was 1.6. A18G U108A showed a self-cleavage of 0.03. Work on A18G U108C yielded a self-cleavage of 0.02. Work on C17U A33G yielded a self-cleavage of 1.07. Work on A18U G48U yielded a self-cleavage of 1.24. A18C A60G showed a self-cleavage of 2.54. Work on A18C A22U yielded a self-cleavage of 1.71. A18C A22G gave a self-cleavage of 1.85. For C17U A62G, the self-cleavage was 0.91. For A18G C101A, the self-cleavage was 0.06.
